Results from article PMC3014896.

What was measured:
[1] = molecular target: HLMWb5 A59S mutant (human) (UniProt P00167)
[2] = molecular target: HLMWb5 A59V mutant (human) (UniProt P00167)
[3] = molecular target: HLMWb5 G67A mutant (human) (UniProt P00167)
[4] = molecular target: HLMWb5 G67S mutant (human) (UniProt P00167)
[5] = molecular target: HLMWb5 L51I mutant (human) (UniProt P00167)
[6] = molecular target: full-length form of human cytochrome b5 (human) (UniProt P00167)
[7] = molecular target: HLMWb5 A59S mutant (human) (UniProt P00167); remark: listed apart in the source
[8] = molecular target: HLMWb5 A59V mutant (human) (UniProt P00167); remark: listed apart in the source
[9] = molecular target: HLMWb5 G67A mutant (human) (UniProt P00167); remark: listed apart in the source
[10] = molecular target: HLMWb5 G67S mutant (human) (UniProt P00167); remark: listed apart in the source
[11] = molecular target: HLMWb5 L51I mutant (human) (UniProt P00167); remark: listed apart in the source
[12] = molecular target: full-length form of human cytochrome b5 (human) (UniProt P00167); remark: listed apart in the source
[13] = molecular target: heme-binding soluble domain of human liver microsomal cytochrome b5 with an NH2-terminal 6xHis-tag extension (HLMWb5) (human) (UniProt P00167)

- half-wave potential E1/2 (vs. SHE) by cyclic voltammetry, poly-L-lysine 50~300 μM; shifts positively and reaches a plateau at 200 μM (value at 200 μM) [1]: -31.5 mV
- half-wave potential E1/2 (vs. SHE) by cyclic voltammetry, poly-L-lysine 50~300 μM; no dependency on the poly-L-lysine concentration observed (value at 200 μM) [2]: -29 mV
- half-wave potential E1/2 (vs. SHE) by cyclic voltammetry, poly-L-lysine 50~300 μM; similar concentration dependency as the wild type, with a significant negative shift (value at 200 μM) [3]: -40.5 mV
- half-wave potential E1/2 (vs. SHE) by cyclic voltammetry, poly-L-lysine 50~300 μM; similar concentration dependency as the wild type (value at 200 μM) [4]: -32 mV
- half-wave potential E1/2 (vs. SHE) by cyclic voltammetry, poly-L-lysine 50~300 μM; no dependency on the poly-L-lysine concentration observed (value at 200 μM) [5]: -30.5 mV
- half-wave potential E1/2 (vs. SHE) by cyclic voltammetry, Au electrode with β-mercaptopropionic acid, 200 μM poly-L-lysine, with Triton X-100 [6]: -20.5 mV
- midpoint potential (vs. SHE) by spectroscopic redox titration with 200 μM poly-L-lysine (-4.9 mV without poly-L-lysine) [7]: 9.6 mV
- midpoint potential (vs. SHE) by spectroscopic redox titration with 200 μM poly-L-lysine (-7.7 mV without poly-L-lysine) [8]: 11.7 mV
- midpoint potential (vs. SHE) by spectroscopic redox titration with 200 μM poly-L-lysine (-8.4 mV without poly-L-lysine) [9]: -2.7 mV
- midpoint potential (vs. SHE) by spectroscopic redox titration with 200 μM poly-L-lysine (-7.3 mV without poly-L-lysine) [10]: 14.2 mV
- midpoint potential (vs. SHE) by spectroscopic redox titration with 200 μM poly-L-lysine (-9.5 mV without poly-L-lysine) [11]: 10.5 mV
- midpoint potential (vs. SHE) by spectroscopic redox titration with 200 μM poly-L-lysine, 0.5% Triton X-100 (-2.6 mV without poly-L-lysine) [12]: 8.7 mV
- midpoint potential (vs. SHE) by spectroscopic redox titration, 15 μM protein with 200 μM poly-L-lysine, pH 7.0, 25°C (-3.2 mV without poly-L-lysine) [13]: 16.5 mV
Substance: poly-L-lysine (peptide)
